What was measured:
ERK2 (Rattus norvegicus) = ERK2 (Rattus norvegicus) (UniProt P63086); details: cited from earlier work
[1] = target: activated His6-tagged ERK2 (cleavable His6-tag construct, tag not cleaved) (Rattus norvegicus) (UniProt P63086); test: SEC-MALS

Row | percent dimer [1] [%] | stoichiometry N [1] | Substance | Kd (ERK2 (Rattus norvegicus)) [nM]
1 | – | – | ERK2 (from UniProt P63086) | 7
2 | 30 | 2 | activated His6-tagged ERK2 (cleavable His6-tag construct, tag not cleaved) (from UniProt P63086 1-358) (enzyme) | –

From article PMC3401516
